For this assay, the target named is T1, bacteriorhodopsin (BR) from Halobacterium salinarum (Halobacterium salinarum), P02945.
T1 chain: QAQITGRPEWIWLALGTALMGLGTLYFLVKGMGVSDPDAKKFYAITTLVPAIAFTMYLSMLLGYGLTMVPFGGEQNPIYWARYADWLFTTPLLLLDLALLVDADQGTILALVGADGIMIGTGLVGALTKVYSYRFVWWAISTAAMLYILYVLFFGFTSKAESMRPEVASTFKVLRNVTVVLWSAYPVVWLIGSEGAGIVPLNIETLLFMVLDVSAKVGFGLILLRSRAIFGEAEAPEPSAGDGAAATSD
Nature of the assay: SEC; Sephadex 200 column, BR solubilised in DDM; elution position compared with Blue Dextran, alcohol dehydrogenase (150 kDa) and bovine serum albumin (66 kDa). The following applies: remark: other sources report otherwise. (In general: SEC sorts molecules by how far they enter the pores of the column.)

B1: bacteriorhodopsin (BR) from Halobacterium salinarum, P02945 14-262 (natural protein)
chain: QAQITGRPEWIWLALGTALMGLGTLYFLVKGMGVSDPDAKKFYAITTLVPAIAFTMYLSMLLGYGLTMVPFGGEQNPIYWARYADWLFTTPLLLLDLALLVDADQGTILALVGADGIMIGTGLVGALTKVYSYRFVWWAISTAAMLYILYVLFFGFTSKAESMRPEVASTFKVLRNVTVVLWSAYPVVWLIGSEGAGIVPLNIETLLFMVLDVSAKVGFGLILLRSRAIFGEAEAPEPSAGDGAAATSD
modifications: here or on the partner: retinal chromophore attached in a Schiff base linkage to a lysine residue in the seventh helix; retinal chromophore attached in a Schiff base linkage to a lysine residue in the seventh helix
Turning to B1, the stoichiometry N (as a rule, a count of units in the complex or per binding partner) is 3.

For the origin of these results see article PMC5572738.
